According to patent EP4667489A1:

Biological target: human PDL1 expressed on 293T-PDL1 cells (human) (UniProt Q9NZQ7)
Assay: flow cytometry on 293T-PDL1 cells

human PDL1 expressed on 293T-PDL1 cells (human), sequence (Q9NZQ7 19-290): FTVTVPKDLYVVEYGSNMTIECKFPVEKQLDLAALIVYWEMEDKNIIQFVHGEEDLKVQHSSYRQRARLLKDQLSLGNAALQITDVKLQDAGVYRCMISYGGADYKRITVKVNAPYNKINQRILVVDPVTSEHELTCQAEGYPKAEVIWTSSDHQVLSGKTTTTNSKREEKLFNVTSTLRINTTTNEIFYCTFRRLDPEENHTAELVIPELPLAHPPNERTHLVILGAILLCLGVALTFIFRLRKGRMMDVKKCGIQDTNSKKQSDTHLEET

IgG1 irrelevant antibody
MFI.Max: 44.1
